# From patent publication US7067277B1, “Chimeric G proteins and uses thereof” (H. Lundbeck A/S, priority 1999, dated 2006)
# Changes are numbered by the printed parent chain.
# T1: h 5HT1F (Homo sapiens, UniProt P30939)
# T1 sequence (P30939 1-366): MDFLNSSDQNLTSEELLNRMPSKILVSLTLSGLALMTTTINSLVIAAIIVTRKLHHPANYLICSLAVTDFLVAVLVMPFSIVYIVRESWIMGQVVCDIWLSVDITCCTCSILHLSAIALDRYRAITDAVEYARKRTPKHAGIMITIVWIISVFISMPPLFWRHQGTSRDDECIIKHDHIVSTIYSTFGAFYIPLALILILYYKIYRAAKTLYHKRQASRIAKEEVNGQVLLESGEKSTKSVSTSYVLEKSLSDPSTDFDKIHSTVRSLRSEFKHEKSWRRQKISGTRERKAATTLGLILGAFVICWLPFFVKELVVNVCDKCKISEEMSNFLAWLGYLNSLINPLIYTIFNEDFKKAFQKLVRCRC
# T2: h Y5 (Homo sapiens, UniProt Q15761)
# T2 construct: expressed in transfected cells; host or cells: COS-7
# T2 sequence (Q15761 1-445): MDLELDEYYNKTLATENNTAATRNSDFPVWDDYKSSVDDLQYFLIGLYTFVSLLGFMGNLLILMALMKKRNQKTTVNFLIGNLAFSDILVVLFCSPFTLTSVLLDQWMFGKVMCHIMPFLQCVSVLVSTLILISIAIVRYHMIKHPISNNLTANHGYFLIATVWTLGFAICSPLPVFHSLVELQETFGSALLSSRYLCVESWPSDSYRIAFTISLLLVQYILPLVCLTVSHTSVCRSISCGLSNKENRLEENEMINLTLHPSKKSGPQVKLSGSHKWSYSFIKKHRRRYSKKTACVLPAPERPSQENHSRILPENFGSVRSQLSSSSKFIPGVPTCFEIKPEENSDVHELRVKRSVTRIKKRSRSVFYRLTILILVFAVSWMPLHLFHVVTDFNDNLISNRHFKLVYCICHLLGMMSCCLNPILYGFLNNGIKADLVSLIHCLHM
# T3: h GALR1 (Homo sapiens, UniProt P47211)
# T3 construct: expressed in transfected cells; host or cells: COS-7
# T3 sequence (P47211 1-349): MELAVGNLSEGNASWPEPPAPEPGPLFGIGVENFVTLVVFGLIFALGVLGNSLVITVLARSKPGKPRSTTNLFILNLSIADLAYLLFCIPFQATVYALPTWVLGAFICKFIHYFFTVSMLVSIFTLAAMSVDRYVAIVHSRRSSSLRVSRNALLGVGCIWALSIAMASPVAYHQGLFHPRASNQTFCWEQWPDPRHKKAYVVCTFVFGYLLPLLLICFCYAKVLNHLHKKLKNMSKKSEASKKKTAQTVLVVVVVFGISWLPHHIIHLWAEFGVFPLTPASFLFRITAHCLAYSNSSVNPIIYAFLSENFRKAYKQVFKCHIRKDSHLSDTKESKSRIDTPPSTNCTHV
# B1: cGαq/z5: chimeric Gα subunit: C-terminal final 5 amino acids of C. elegans Gαq replaced with those of hGαz (SEQ ID NO: 1) (protein)
# chain: MACCLSEEAREQKRINQEIEKQLQRDKRNARRELKLLLLGTGESGKSTFIKQMRIIHGQGYSEEDKRAHIRLVYQNVFMAIQSMIRAMDTLDIKFGNESEELQEKAAVVREVDFESVTSFEEPYVSYIKELWEDSGIQECYDRRREYQLTDSAKYYLSDLRRLAVPDYLPTEQDILRVRVPTTGIIEYPFDLEQIIFRMVDVGGQRSERRKWIHCFENVTSIMFLVALSEYDQVLVECDNENRMEESKALFRTIITYPWFTNSSVILFLNKKDLLEEKILYSHLADYFPEYDGPPRDPIAAREFILKMFVDLNPDADKIIYSHFTCATDTENIRFVFAAVKDTILQHNLKYIGLC
# modifications: C. elegans
# B2: cGαq/z9: C. elegans Gαq with Gαz portion of the C-terminal tail extended to 9 amino acids (SEQ ID NO: 2) (protein)
# chain: B1 chain with H347N
# modifications: C. elegans
# Key:
# Assay in all cases: Calcium mobilization (FLIPR, Fluo-3) in transfected COS-7 cells
# Type in all cases: cell-based
# h 5HT4 = h 5HT4 (Homo sapiens, UniProt Q13639); conditions: h 5HT4 + chimera in COS-7; agonist 5HT, max 100 μM
# Sequence of h 5HT4 (Q13639 whole entry): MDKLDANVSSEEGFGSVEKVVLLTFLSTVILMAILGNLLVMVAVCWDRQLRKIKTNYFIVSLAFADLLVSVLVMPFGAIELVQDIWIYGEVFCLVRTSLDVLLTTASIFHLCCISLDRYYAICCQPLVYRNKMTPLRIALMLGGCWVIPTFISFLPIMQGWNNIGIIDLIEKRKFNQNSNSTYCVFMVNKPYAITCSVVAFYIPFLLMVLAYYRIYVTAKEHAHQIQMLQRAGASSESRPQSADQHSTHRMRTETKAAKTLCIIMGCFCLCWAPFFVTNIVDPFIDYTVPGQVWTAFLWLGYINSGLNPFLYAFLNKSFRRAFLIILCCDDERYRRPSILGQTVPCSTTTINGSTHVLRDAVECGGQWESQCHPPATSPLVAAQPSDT
# Summary of the method: (§1)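 First, COS-7 cells receive GPCR and chimeric G protein cDNA by DEAE-dextran transfection. Agonist responses are finally recorded by FLIPR for 3 min at room temperature.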
# h 5HT1F = biological target: T1, h 5HT1F; conditions: h 5HT1F + chimera in COS-7; agonist 5HT, max 100 μM
# Summary of the method: as §1
# h Y5 = biological target: T2, h Y5; conditions: h Y5 + chimera in COS-7; agonist NPY, max 10 μM
# Summary of the method: as §1
# h NPFF2 = biological target: T4, h NPFF2 (Homo sapiens, UniProt Q9Y5X5); conditions: h NPFF2 + chimera in COS-7; agonist NPFF, max 10 μM
# T4 construct: expressed in transfected cells; host or cells: COS-7
# T4 sequence (Q9Y5X5 103-522 limits assumed): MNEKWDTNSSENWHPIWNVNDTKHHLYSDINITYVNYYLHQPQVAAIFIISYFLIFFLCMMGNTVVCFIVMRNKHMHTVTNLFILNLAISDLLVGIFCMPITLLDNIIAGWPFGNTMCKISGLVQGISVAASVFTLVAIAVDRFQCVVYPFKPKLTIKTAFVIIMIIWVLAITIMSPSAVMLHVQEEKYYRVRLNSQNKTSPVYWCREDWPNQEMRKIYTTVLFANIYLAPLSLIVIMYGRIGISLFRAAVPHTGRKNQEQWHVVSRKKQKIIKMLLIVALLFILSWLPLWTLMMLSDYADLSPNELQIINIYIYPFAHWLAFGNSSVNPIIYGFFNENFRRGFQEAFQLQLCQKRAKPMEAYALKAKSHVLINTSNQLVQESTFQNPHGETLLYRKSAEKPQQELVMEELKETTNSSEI
# Summary of the method: as §1
# h GALR1 = biological target: T3, h GALR1; conditions: h GALR1 + chimera in COS-7; agonist GAL, max 10 μM
# Summary of the method: as §1
# m 5HT5B = m 5HT5B (Mus musculus, UniProt P31387); conditions: m 5HT5B + chimera in COS-7; agonist 5HT, max 100 μM
# Sequence of m 5HT5B (P31387 whole entry): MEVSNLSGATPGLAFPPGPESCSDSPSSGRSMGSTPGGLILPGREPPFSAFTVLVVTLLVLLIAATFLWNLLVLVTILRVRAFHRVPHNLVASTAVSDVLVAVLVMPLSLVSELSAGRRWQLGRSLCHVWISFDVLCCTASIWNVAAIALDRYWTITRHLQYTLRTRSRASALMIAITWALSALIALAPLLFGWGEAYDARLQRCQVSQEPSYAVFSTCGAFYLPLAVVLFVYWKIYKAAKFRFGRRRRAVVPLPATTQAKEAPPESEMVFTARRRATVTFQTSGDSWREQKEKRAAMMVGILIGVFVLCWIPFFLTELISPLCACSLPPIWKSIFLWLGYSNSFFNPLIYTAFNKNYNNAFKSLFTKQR
# Summary of the method: as §1
# r Y4 = r Y4 (Rattus norvegicus, UniProt Q63447); conditions: r Y4 + chimera in COS-7; agonist PP, max 10 μM
# Sequence of r Y4 (Q63447 whole entry): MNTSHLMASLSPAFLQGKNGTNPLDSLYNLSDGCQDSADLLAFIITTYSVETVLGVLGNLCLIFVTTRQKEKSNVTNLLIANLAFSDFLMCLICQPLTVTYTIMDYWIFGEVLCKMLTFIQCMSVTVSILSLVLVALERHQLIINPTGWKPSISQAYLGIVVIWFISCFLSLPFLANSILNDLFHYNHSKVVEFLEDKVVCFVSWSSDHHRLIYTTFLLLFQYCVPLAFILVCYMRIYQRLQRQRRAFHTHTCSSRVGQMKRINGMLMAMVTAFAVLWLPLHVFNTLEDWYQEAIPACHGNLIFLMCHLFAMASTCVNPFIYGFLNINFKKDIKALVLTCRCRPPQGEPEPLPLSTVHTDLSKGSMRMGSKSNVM
# Summary of the method: as §1
Molecule,MAXIMAL SIGNAL (FLUORESCENCE UNITS) (h 5HT4) [fluorescence units],MAXIMAL SIGNAL (FLUORESCENCE UNITS) (h 5HT1F) [fluorescence units],MAXIMAL SIGNAL (FLUORESCENCE UNITS) (h Y5) [fluorescence units],MAXIMAL SIGNAL (FLUORESCENCE UNITS) (h NPFF2) [fluorescence units],MAXIMAL SIGNAL (FLUORESCENCE UNITS) (h GALR1) [fluorescence units],MAXIMAL SIGNAL (FLUORESCENCE UNITS) (m 5HT5B) [fluorescence units],MAXIMAL SIGNAL (FLUORESCENCE UNITS) (r Y4) [fluorescence units]
B1,1011,243,5314,7566,7648,265,3662
B2,1696,384,6680,4578,8489,443,2583
